Results published in patent publication US20170073382.

Molecular target: synthetic TAL effector (RVG-LAMP-2B-NLS-TALE) (Artificial Sequence) (UniProt P14727)
Test: cell_activity

“gfaABC1D-NeuroD1 plasmid without TAL effector binding site” showed a binding signal of 1 fold.
